B1: Ribonucleoside-diphosphate reductase subunit M2 B (Homo sapiens), Q7LG56-1 (parent)
chain: MGDPERPEAAGLDQDERSSSDTNESEIKSNEEPLLRKSSRRFVIFPIQYPDIWKMYKQAQASFWTAEEVDLSKDLPHWNKLKADEKYFISHILAFFAASDGIVNENLVERFSQEVQVPEARCFYGFQILIENVHSEMYSLLIDTYIRDPKKREFLFNAIETMPYVKKKADWALRWIADRKSTFGERVVAFAAVEGVFFSGSFAAIFWLKKRGLMPGLTFSNELISRDEGLHCDFACLMFQYLVNKPSEERVREIIVDAVKIEQEFLTEALPVGLIGMNCILMKQYIEFVADRLLVELGFSKVFQAENPFDFMENISLEGKTNFFEKRVSEYQRFAVMAETTDNVFTLDADF

Variants of: B1
Conditions: with atm_human ATM

Row | Variant | effect of a mutation on the interaction
1 | S72A | decreasing interaction
